Measurements: PMC6769508, “Cooperative Binding of KaiB to the KaiC Hexamer Ensures Accurate Circadian Clock Oscillation in Cyanobacteria” (International Journal of Molecular Sciences, 2019)
Several values for one entry are separate records, joined by “and”; a condition that tells them apart may be missing. Equal values may be shown once.

B1: TeKaiCDD, T. elongatus KaiC mutant with Ser431 and Thr432 substituted by aspartate residues (natural protein, Thermosynechococcus elongatus, UniProt Q79V60 1-518, looked up)
chain: MTNLPEHQSSPTEQSSAEVKKIPTMIEGFDDISHGGLPQGRTTLVSGTSGTGKTLFAVQFLYNGITIFNEPGIFVTFEESPQDIIKNALSFGWNLQSLIDQGKLFILDASPDPDGQEVAGDFDLSALIERIQYAIRKYKATRVSIDSVTAVFQQYDAASVVRREIFRLAFRLKQLGVTTIMTTERVDEYGPVARFGVEEFVSDNVVILRNVLEGERRRRTVEILKLRGTTHMKGEYPFTINNGINIFPLGAMRLTQRSSNVRVSSGVKTLDEMCGGGFFKDSIILATGATGTGKTLLVSKFLETGCQQGERALLFAYEESRAQLSRNASSWGIDFEELERRGLLRIICAYPESAGLEDHLQIIKSEIADFKPSRVAIDSLSALARGVSNNAFRQFVIGVTGFAKQEEITGFFTNTTDQFMGSNSITESHIDDITDTILLLQYVEIRGEMSRAINVFKMRGSWHDKGIREYVITEKGAEIRDSFRNFEGIISGTPTRISVDEKTELARIAKGMQDLESE
notes: KaiC, Thermosynechococcus elongatus (strain BP-1), Ser431 and Thr432 substituted by aspartate (mimics the fully phosphorylated form); Seen as a homohexamer by native MS; also called TeKaiCDD homohexamer; source: E. coli, GST-tagged, purified after cleavage of the GST-tag

How the values were obtained:
[1] = target: the molecule itself; assay: SEC; Superdex 200 increase; 20 mM Tris-HCl (pH 8.0), 150 mM NaCl, 5 mM MgCl2, 0.5 mM EDTA, 1 mM DTT; TeKaiB or TeKaiBDD in the absence of KaiC
[2] = target: the molecule itself; assay: native MS; TeKaiCDD (20 µM) titrated with KaiB or SasA proteins, incubated at 37 °C for 6 h, buffer-exchanged into 150 mM ammonium acetate, pH 6.8; nanoflow ESI
[3] = target: B1; assay: as above; details: both partners purified

stoichiometry N [3] | Binder | stoichiometry N [1] | also measured
– | TeKaiB, wild-type T. elongatus KaiB (natural protein, Thermosynechococcus elongatus, UniProt Q79V61 1-108, looked up, KaiB, Thermosynechococcus elongatus (strain BP-1), wild type; source: E. coli, GST-tagged, purified after cleavage of the GST-tag) MAPLRKTYVLKLYVAGNTPNSVRALKTLNNILEKEFKGVYALKVIDVLKNPQLAEEDKILATPTLAKVLPPPVRRIIGDLSNREKVLIGLDLLYEEIGDQAEDDLGLE | 4 | –
– | TeKaiBDD, TeKaiB with the DD mutation (Arg23 and Lys26 to aspartate) (natural protein, Thermosynechococcus elongatus, UniProt Q79V61 1-108, looked up, KaiB, Thermosynechococcus elongatus (strain BP-1), Arg23 and Lys26 substituted with aspartate; Named only in the SEC methods; source: E. coli, GST-tagged, purified after cleavage of the GST-tag) MAPLRKTYVLKLYVAGNTPNSVDALDTLNNILEKEFKGVYALKVIDVLKNPQLAEEDKILATPTLAKVLPPPVRRIIGDLSNREKVLIGLDLLYEEIGDQAEDDLGLE | 4 | –
– | B1 | – | stoichiometry N [2]: 6
6 binder chains per KaiC hexamer | TeKaiB_(10–108), N-terminal truncated mutant of T. elongatus KaiB (domain or fragment, Thermosynechococcus elongatus, UniProt Q79V61 10-108, looked up, KaiB, Thermosynechococcus elongatus (strain BP-1), residues 10-108 (N-terminal segment deleted); source: E. coli, GST-tagged, purified after cleavage of the GST-tag) LKLYVAGNTPNSVRALKTLNNILEKEFKGVYALKVIDVLKNPQLAEEDKILATPTLAKVLPPPVRRIIGDLSNREKVLIGLDLLYEEIGDQAEDDLGLE | – | –
1 binder chains per KaiC hexamer and 3 binder chains per KaiC hexamer and 2 binder chains per KaiC hexamer | TeKaiB_(10–108/DD), TeKaiB_(10–108) with Arg23 and Lys26 replaced with aspartate (domain or fragment, Thermosynechococcus elongatus, UniProt Q79V61 10-108, looked up, KaiB, Thermosynechococcus elongatus (strain BP-1), residues 10-108, Arg23 and Lys26 substituted with aspartate; source: E. coli, GST-tagged, purified after cleavage of the GST-tag) LKLYVAGNTPNSVDALDTLNNILEKEFKGVYALKVIDVLKNPQLAEEDKILATPTLAKVLPPPVRRIIGDLSNREKVLIGLDLLYEEIGDQAEDDLGLE | – | –
